Source: patent publication US20100317830A1, “BACE455, AN ALTERNATIVE SPLICE VARIANT OF THE HUMAN BETA-SECRETASE” (EXONHIT THERAPEUTICS SA, priority 2003, published 2010)
Where a name gives a salt, the structure may show the parent alone. One block for each compound: values may come before it. Square brackets hold non-standard residues; d marks the D form. Peptide text beside a SMILES is read from it. * marks the point of attachment. Sta = CC(C)C[C@H](N)[C@@H](O)CC(=O)O; Isovaleryl = CC(C)CC(=O)*

What was measured:
[1] = tested on: endogenously expressed APP isoforms in SH-SY5Y cells; assay: Western blot of C99 fragment generation in transfected SH-SY5Y cells; type: cell-based, human; conditions: BACE455 SH-SY5Y cells
Method: SH-SY5Y cells for transfection were grown to 80% confluence in Dulbecco's modified Eagle's medium (DMEM) with 10% fetal bovine serum. Transfections were performed using LipofectAmine Plus (Gibco-BRL) with […] per 10*10<6>cells. Three days posttransfection, cells were passaged into medium containing G418 at a concentration of 400 μg/ml. After twenty days growth in selective medium, individual clones were selected and plated into each well of one 96 well plate containing growth medium plus G418. Clones were expanded from the 96 well plate to a 24 well plate and then to a 6 well plate. Clones which had lost initial neuronal-like morphology were not amplified. BACE455 or BACE501 expression in selected clones was assayed by Western Blotting and immunohistochemical analysis using Cterminal-specific antibody.
Cells were harvested 3 days after plating. Cells were washed twice with PBS and lysed in 1 ml CellLytic solution (Sigma) plus protease inhibitors cocktail (Roche Diagnostics) for 15 min. […] Following electrotransfer of the separated polypeptides to PVDF membranes, APP and C99 proteolytic fragment were detected with C-terminal-specific rabbit anti-APP antibody (Serotec, UK) at 1/500 in PBS-Tween 20 0.1%, and the antibody-antigen complexes were visualized using alkaline phosphatase conjugated goat anti-rabbit antibodies (1/5000). […]

BACE455 = target: T1, BACE455 (Homo sapiens, UniProt P56817, DEL190-235); assay: beta-secretase fluorogenic assay (Substrate V) with membrane extracts of HEK293-BACE455 cells plus protease inhibitors; type: biochemical; conditions: for inhibition at 100 µM / Percentage of BACE455 inhibition by various inhibitors (mean percentage of cleavage inhibition): BACE455 cell extract; for inhibition at 100 µM / Percentage of BACE455 inhibition by various inhibitors (mean percentage of cleavage inhibition) / effect on substrate cleavage activity of BACE455 extracts (in words): inhibitor 100 μM; for inhibition at 100 µM: read-out: Percentage of BACE455 inhibition by various inhibitors (mean percentage of cleavage inhibition); for BACE455 activity (percentage of activity +−SEM): compared to mock transfected control; for % Inhibition of BACE activity by Inhibitor III: BACE455, 100 μM
T1 construct: full length cDNA of BACE501 and BACE455 in TOPO TA vector were subcloned into pcDNA3; expressed in transfected cells; Triton X100 membrane extract
T1 sequence (P56817 with tags, fused parts or gaps DEL190-235): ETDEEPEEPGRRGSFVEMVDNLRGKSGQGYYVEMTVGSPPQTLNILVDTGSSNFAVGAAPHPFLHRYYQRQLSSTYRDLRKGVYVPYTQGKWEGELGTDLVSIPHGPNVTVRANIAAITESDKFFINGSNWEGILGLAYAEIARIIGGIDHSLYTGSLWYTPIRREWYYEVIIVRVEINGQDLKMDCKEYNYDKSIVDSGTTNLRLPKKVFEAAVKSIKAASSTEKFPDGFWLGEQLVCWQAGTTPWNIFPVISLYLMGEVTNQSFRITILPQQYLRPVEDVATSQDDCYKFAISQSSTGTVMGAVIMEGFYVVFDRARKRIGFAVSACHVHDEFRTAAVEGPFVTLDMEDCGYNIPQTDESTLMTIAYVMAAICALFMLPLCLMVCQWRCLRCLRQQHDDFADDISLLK
Method: (§1) Cells were harvested and centrifuged at 1,500 rpm for 5 minutes to remove the medium. The cell pellets were washed once with PBS. To further compare BACE455 activity with that of BACE501, an in vitro assay was developed based on quenched fluorogenic substrate (Substrate V, Calbiochem) containing the Swedish mutation KM->NL in APP. Sequence of the peptide was: MCA-[…](DNP)-CONH2 (SEQ ID NO: 32), containing the Swedish APP mutation (in boldface), γ-amino-4-methyl coumarin (MCA) as the fluorophore and dinotrophenol (DNP) as the quencher. When cell lysates of BACE455 and BACE501 expressing cells are incubated with the fluorogenic Substrate V, upon cleavage by the protease, the fluorophore is separated from the quenching group, restoring the full fluorescence yield of the donor. (Ermolief et al., Biochemistry 39: 12450-12456 (2000); Ellerby et al. J. Neurosci. 17: 6165-6178 (1997); Capel et al., J Biol. Chem. 277: 5637-43 (2002)).
(§2) Mock transfected HEK293 and HEK293-BACE455 and -BACE501cells were harvested by scraping in ice-cold 20 mM Tris/150 mM NaCl, pH 7.5 plus Complete Protease Inhibitor Cocktail (Roche Diagnostics). Cell were lysed by repeated freeze-thawing and a postnuclear fraction was generated after centrifugation at 500 g for 10 min, Pellets were resuspended in membrane extraction buffer (20 mM MES/1% Triton X100) containing protease inhibitor cocktail and incubated on ice for 30 minutes. The assay was carried out in black 96 well plates (ATGC) in a volume of 200 μl of the membrane preparation diluted in reaction buffer (25 mM MES/25 mM Sodium Acetate/25 mM Tris, pH 4.4) containing 15 μM peptide Substrate V. These components were equilibrated to 37[deg.] C. for various times and the reaction initiated by addition of substrate. Excitation was performed at 320 nm and the reaction kinetics were monitored by measuring the fluorescence emission at 420 nm. To test the effect of pH, lysed cells were resuspended in 25 mM MES/25 mM Sodium Acetate/25 mM Tris adjusted at pH values ranging from 4.4 to 8 and then incubations were performed as above. Controls included purified recombinant human BACE501 protein (R&D Systems), or substrate alone and background fluorescence is subtracted to recorded BACE isoforms activities.
(§3) Protease inhibitors were added to 100 μl reaction buffer (25 mM MES/25 mM Sodium Acetate/25 mM Tris, pH 4.4) at a final concentration of 100 μM. […] Membrane preparations were obtained as in Example 4 and incubated with the inhibitors for 10 min at room temperature. Reaction was then started by adding 100 μl of reaction buffer containing the substrate (15 μM final concentration) and monitored as described in Example 4. For the dose-response experiment of FIG. 3, Inhibitor III was assayed at various concentrations ranging from 100 μM to 100 nM
(§4) Membrane preparations were obtained as in Example 4 and incubated in assay buffer (25 mM MES/25 mM Sodium Acetate/25 mM Tris) adjusted to final pH ranging from 4.4 to 8, in the presence or absence of BACE inhibitor III (100 μM final concentration). Reaction was started by adding 100 μl of reaction buffer (pH ranging from 4.4 to 8) containing the substrate (15 μM final concentration) and monitored as described in Example 4. We determined in these conditions the percentage of inhibition of BACE by Inhibitor III.

BACE501 = target: T2, BACE501 (Homo sapiens, UniProt P56817); assay: beta-secretase fluorogenic assay (Substrate V) with membrane extracts of HEK293-BACE501 cells plus protease inhibitors; type: biochemical; conditions: for inhibition at 100 µM / Percentage of inhibition by various inhibitors (mean percentage of cleavage inhibition), BACE501: BACE501 cell extract; for inhibition at 100 µM / Percentage of inhibition by various inhibitors (mean percentage of cleavage inhibition), BACE501 / effect on substrate cleavage activity of BACE501 extracts (in words): inhibitor 100 μM; for inhibition at 100 µM: read-out: Percentage of inhibition by various inhibitors (mean percentage of cleavage inhibition), BACE501; for BACE501 activity (percentage of activity +−SEM): compared to mock transfected control; for % Inhibition of BACE activity by Inhibitor III: BACE501, 100 μM
T2 construct: full length cDNA of BACE501 and BACE455 in TOPO TA vector were subcloned into pcDNA3; expressed in transfected cells; Triton X100 membrane extract
T2 sequence (P56817 46-501): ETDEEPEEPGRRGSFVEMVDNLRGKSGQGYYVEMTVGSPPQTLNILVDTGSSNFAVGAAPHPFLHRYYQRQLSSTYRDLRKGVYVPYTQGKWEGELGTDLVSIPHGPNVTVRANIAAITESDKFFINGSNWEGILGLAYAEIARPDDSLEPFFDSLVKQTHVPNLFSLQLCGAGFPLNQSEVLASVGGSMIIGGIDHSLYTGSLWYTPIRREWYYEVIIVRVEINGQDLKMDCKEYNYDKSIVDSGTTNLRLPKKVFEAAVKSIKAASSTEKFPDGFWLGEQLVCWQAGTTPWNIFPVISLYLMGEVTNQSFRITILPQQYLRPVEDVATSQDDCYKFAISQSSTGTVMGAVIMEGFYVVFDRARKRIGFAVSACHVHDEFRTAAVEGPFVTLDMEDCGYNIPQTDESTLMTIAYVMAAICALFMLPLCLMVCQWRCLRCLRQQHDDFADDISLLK
Method: as §1, §2, §3, §4

[2] = tested on: endogenously expressed APP in SH-SY5Y cells; assay: Aβ1-40 double antibody sandwich ELISA on conditioned medium of transfected SH-SY5Y cells; type: cell-based, human; conditions: Gleevec treatment of BACE455 cells
Method: Cells were harvested 3 days after plating and processed for Western Blotting experiments as described above.
Cell culture supernatants harvested 72 hours after plating were analyzed in a standard double antibody isoform-specific Aβ1-40 ELISA (BioSource International) as follows. […] The detecting antibody is specific for Abeta 1-40 and the conjugated secondary antibody is an anti-rabbit IgG conjugated to horseradish peroxydase. Synthetic human Aβ1-40 standard peptides are serially diluted in the supplied sample diluent for the generation of standard curves.
Human Abeta 1-40 standards were added after washing the plate, as well as 100 μl/well of sample, e.g., conditioned medium of transfected cells. The plate was incubated at 4[deg.] C. overnight. The next day, after washing the plate four times, 100 μl/well rabbit detection antibody was added and incubated for 2 hours on an orbital plate shaker at 20 degree C. […] 100 μl/well stop solution was added and absorbance of each well was read at 450 nm within two hours, with a solution of 100 μl each of chromogen and stop solution as the blank. […] The samples with absorbance values falling within the standard curve were extrapolated (by comparison to the values obtained for the A-β40 and A-β42 standard peptides analyzed on the same plate) from the standard curves and expressed in pg/ml culture medium.

Compound: C[C@H]1CCC/C=C/[C@@H]2C[C@H](O)C[C@H]2[C@H](O)/C=C/C(=O)O1 [BFA, brefeldin A]
generation of C99 ([1]; 10 μg/ml during the last 8 hours): reduced generation of C99

Compound: CC(C)C[C@H](NC(=O)[C@@H](NC(=O)N[C@@H](Cc1ccccc1)C(=O)O)[C@@H]1CCN=C(N)N1)C(=O)N[C@H](C=O)Cc1ccccc1 [Chymostatin]
inhibition at 100 µM (BACE455; pH 4.4): 25.9%
inhibition at 100 µM (BACE501; pH 4.4): 20.4%

Percentage of BACE455 inhibition by various inhibitors (mean percentage of cleavage inhibition) (BACE455; pH 4.4): 12.23%
Percentage of inhibition by various inhibitors (mean percentage of cleavage inhibition), BACE501 (BACE501; pH 4.4): 13.14%
Compound: CC(C)CCNC(=O)[C@H](CC(C)C)NC(=O)[C@H]1O[C@@H]1C(=O)O [E-64c, E64c]

Compound: Cc1ccc(NC(=O)c2ccc(CN3CCN(C)CC3)cc2)cc1Nc1nccc(-c2cccnc2)n1 [Gleevec, imatinib mesylate]
generation of C99 peptide ([1]; 10 μM for the last 24 hours): strongly reduced
Aβ1-40 release (in words) [2]: strongly reduced

Compound: CC(=O)N[C@@H](CC(C)C)C(=O)N[C@@H](CC(C)C)C(=O)N[C@H](C=O)CCCNC(=N)N [Leupeptin]
inhibition at 100 µM (BACE455; pH 4.4): 17.3%
inhibition at 100 µM (BACE501; pH 4.4): 8.03%

inhibition at 100 µM (BACE455; pH 4.4): 14.4%
effect on substrate cleavage activity of BACE455 extracts (in words) (BACE455): very weakly sensitive
inhibition at 100 µM (BACE501; pH 4.4): 13.1%
effect on substrate cleavage activity of BACE501 extracts (in words) (BACE501): very weakly sensitive
Compound: CC(C)CC(=O)N[C@H](C(=O)N[C@H](C(=O)N[C@@H](CC(C)C)[C@@H](O)CC(=O)N[C@@H](C)C(=O)N[C@@H](CC(C)C)[C@@H](O)CC(=O)O)C(C)C)C(C)C [Pepstatin A] (Isovaleryl-VV[Sta]A[Sta]-OH)

BACE455 activity (percentage of activity +−SEM) (BACE455; 1 μM inhibitor): 57.52+−9.08%
BACE455 activity (percentage of activity +−SEM) (BACE455; 10 μM inhibitor): 36.04+−4.13%
% Inhibition of BACE activity by Inhibitor III (BACE455; pH 4.4): 104.16%
% Inhibition of BACE activity by Inhibitor III (BACE455; pH 6.0): 15.97%
% Inhibition of BACE activity by Inhibitor III (BACE455; pH 8.0): 22.10%
Percentage of BACE455 inhibition by various inhibitors (mean percentage of cleavage inhibition) (BACE455; pH 4.4): 104.16%
effect on substrate cleavage activity of BACE455 extracts (in words) (BACE455): completely abolished
BACE501 activity (percentage of activity +−SEM) (BACE501; 1 μM inhibitor): 85.15+−2.93%
BACE501 activity (percentage of activity +−SEM) (BACE501; 10 μM inhibitor): 57.6+−3.12%
% Inhibition of BACE activity by Inhibitor III (BACE501; pH 4.4): 117.54%
% Inhibition of BACE activity by Inhibitor III (BACE501; pH 6.0): 13.23%
% Inhibition of BACE activity by Inhibitor III (BACE501; pH 8.0): 17.63%
Percentage of inhibition by various inhibitors (mean percentage of cleavage inhibition), BACE501 (BACE501; pH 4.4): 117.54%
effect on substrate cleavage activity of BACE501 extracts (in words) (BACE501): completely abolished
Compound: H-Glu-Val-Asn-Statine-Val-Ala-Glu-Phe-NH2 [Inhibitor III]
